Residue numbers refer to the chain shown, from its start.
B1: 249 (protein)
chain: LDNGLARTPTMGWLHWERFMCNLDCQEEPDSCISEKLFMEMAELMVSEGWKDAGYEYLCIDDCWMAPQRDSEGRLQADPQRFPHGIRQLANYVHSKGLKLGIYADVGNKTCAGFPGSFGYYDIDAQTFADWGVDLLKFDGCYCDSLENLADGYKHMSLALNRTGRSIVYSCEWPLYMWPFQKPNYTEIRQYCNHWRNFADIDDSWASIKSILDWTSFNQETIVDVAGPGGWNDPDMLVIGNFGLSWNQQVTQMALWAIMAAPLFMSNDLRHISPQAKALLQDKDVIAINQDPLGKQGYQLRQGDNFEVWERPLSGLAWAVAVINRQEIGGPRSYTIAVASLGKGVACNPACFITQLLPVKRKLGFYEWTSRLKSHINPTGTVLLQLENTMQMSLKDLL
modifications: Synthetic Polypeptide sequence of Variant No. 249 of mature Human GLA
B2: 253 (protein)
chain: B1 chain with K96I, T221R, N247D, Q302K, L316D, V322M, A337P, E367D, T369D, K373R
modifications: Synthetic Polypeptide sequence of Variant No. 253 of mature Human GLA
B3: 251 (protein)
chain: B1 chain with K96I, F217R, T221R, N247D, V322M, K373R
modifications: Synthetic Polypeptide sequence of Variant No. 251 of mature Human GLA
B4: 258 (protein)
chain: B1 chain with L100F, I208V, Q302K, V322I, K343D, K373R, I376V
modifications: Synthetic Polypeptide sequence of Variant No. 258 of mature Human GLA
B5: 256 (protein)
chain: B1 chain with L100F, I208V, T221K, N247D, Q302K, K343D, F365L, K373R, I376V
modifications: Synthetic Polypeptide sequence of Variant No. 256 of mature Human GLA
B6: 250 (protein)
chain: B1 chain with K96I, F217R, T221R, V322M, K373R
modifications: Synthetic Polypeptide sequence of Variant No. 250 of mature Human GLA
B7: 254 (protein)
chain: B1 chain with L100F, T221R, V322M, K373R
modifications: Synthetic Polypeptide sequence of Variant No. 254 of mature Human GLA
B8: 255 (protein)
chain: B1 chain with L100F, I208V, T221K, N247D, Q302K, V322I, K343D, F365L, K373R, I376V
modifications: Synthetic Polypeptide sequence of Variant No. 255 of mature Human GLA
B9: 257 (protein)
chain: B1 chain with L100F, I208V, V322M, K343D, F365L, K373R, I376V
modifications: Synthetic Polypeptide sequence of Variant No. 257 of mature Human GLA
B10: 252 (protein)
chain: B1 chain with K96I, T221R, N247D, V322M, A350G, E367D, T369D, K373R
modifications: Synthetic Polypeptide sequence of Variant No. 252 of mature Human GLA

Experiment: HTP-analysis of yeast culture supernatants, no challenge (MUGal hydrolysis)
Type: biochemical
Conditions: activity of the variant/activity of Rd2BB (SEQ ID NO: 10), yeast culture supernatant
How it was run: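 GLA variants were expressed in INVSc1 yeast grown in SD-Ura broth with glucose at 30° C., and culture supernatants were collected after 66-84 h. Supernatant was mixed with McIlvaine buffer pH 4.8 and MUGal (2 mM stock) in 50 mM citrate, 200 mM KCl, pH 4.6, incubated at 37° C. for 30-180 minutes, then quenched with sodium carbonate.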

Molecule	Relative Activity of GLA Variants After No Challenge (NC)
B1	++ (++ = 1.5 to 2.5 relative activity over Rd2BB (SEQ ID NO: 10))
B2	+++ (+++ = >2.5 relative activity over Rd2BB (SEQ ID NO: 10))
B3	++ (++ = 1.5 to 2.5 relative activity over Rd2BB (SEQ ID NO: 10))
B4	+++ (+++ = >2.5 relative activity over Rd2BB (SEQ ID NO: 10))
B5	++ (++ = 1.5 to 2.5 relative activity over Rd2BB (SEQ ID NO: 10))
B6	+ (+ = 0.5 to 1.5 relative activity over Rd2BB (SEQ ID NO: 10))
B7	+ (+ = 0.5 to 1.5 relative activity over Rd2BB (SEQ ID NO: 10))
B8	+++ (+++ = >2.5 relative activity over Rd2BB (SEQ ID NO: 10))
B9	++ (++ = 1.5 to 2.5 relative activity over Rd2BB (SEQ ID NO: 10))
B10	+++ (+++ = >2.5 relative activity over Rd2BB (SEQ ID NO: 10))

Experiment: HTP-analysis of supernatants pretreated with acid (MUGal hydrolysis)
Type: biochemical
Conditions: challenge at pH 4.2; activity of the variant/activity of Rd2BB (SEQ ID NO: 10); yeast culture supernatant
How it was run: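 MUGal hydrolysis was tracked by fluorescence (Ex 355 nm, Em 448 nm) after a 30-180 min reaction at 37° C. in pH 4.8 McIlvaine/citrate buffer, stopped with 1 M sodium carbonate. Beforehand, yeast (INVSc1) culture supernatants carrying GLA variants were held 1-3 h at 37° C. in acidic McIlvaine buffer, pH 3.3-4.3.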

Molecule	Relative Activity of GLA Variants After Challenge at pH 4.2
B1	++ (++ = 1.5 to 2.5 relative activity over Rd2BB (SEQ ID NO: 10))
B2	+++ (+++ = >2.5 relative activity over Rd2BB (SEQ ID NO: 10))
B3	+ (+ = 0.5 to 1.5 relative activity over Rd2BB (SEQ ID NO: 10))
B4	++ (++ = 1.5 to 2.5 relative activity over Rd2BB (SEQ ID NO: 10))
B5	+++ (+++ = >2.5 relative activity over Rd2BB (SEQ ID NO: 10))
B6	+ (+ = 0.5 to 1.5 relative activity over Rd2BB (SEQ ID NO: 10))
B7	+ (+ = 0.5 to 1.5 relative activity over Rd2BB (SEQ ID NO: 10))
B8	+++ (+++ = >2.5 relative activity over Rd2BB (SEQ ID NO: 10))
B9	++ (++ = 1.5 to 2.5 relative activity over Rd2BB (SEQ ID NO: 10))
B10	+++ (+++ = >2.5 relative activity over Rd2BB (SEQ ID NO: 10))

Experiment: HTP-analysis of supernatants pretreated with base (MUGal hydrolysis)
Type: biochemical
Conditions: challenge at pH 7.6; activity of the variant/activity of Rd2BB (SEQ ID NO: 10); yeast culture supernatant
How it was run: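 Supernatants from INVSc1 yeast expressing GLA variants (SD-Ura, 66-84 h, 30° C) were mixed with McIlvaine buffer pH 7.0-8.2 or 200 mM sodium bicarbonate pH 9.1-9.7 and held 1-18 h at 37° C. Residual activity was then measured on MUGal at pH 4.8/4.3, 37° C, 30-180 min, by fluorescence (Ex 355/Em 448 nm).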

Molecule	Relative Activity of GLA Variants After Challenge at pH 7.6
B1	+++ (+++ = >2.5 relative activity over Rd2BB (SEQ ID NO: 10))
B2	+++ (+++ = >2.5 relative activity over Rd2BB (SEQ ID NO: 10))
B3	++ (++ = 1.5 to 2.5 relative activity over Rd2BB (SEQ ID NO: 10))
B4	+++ (+++ = >2.5 relative activity over Rd2BB (SEQ ID NO: 10))
B5	+++ (+++ = >2.5 relative activity over Rd2BB (SEQ ID NO: 10))
B6	+ (+ = 0.5 to 1.5 relative activity over Rd2BB (SEQ ID NO: 10))
B7	+ (+ = 0.5 to 1.5 relative activity over Rd2BB (SEQ ID NO: 10))
B8	+++ (+++ = >2.5 relative activity over Rd2BB (SEQ ID NO: 10))
B9	++ (++ = 1.5 to 2.5 relative activity over Rd2BB (SEQ ID NO: 10))
B10	+++ (+++ = >2.5 relative activity over Rd2BB (SEQ ID NO: 10))

Experiment: HTP-analysis of supernatants pretreated with bovine serum (MUGal hydrolysis)
Type: biochemical
Conditions: activity of the variant/activity of Rd2BB (SEQ ID NO: 10), yeast culture supernatant
Experimental: Yeast (INVSc1) cells transformed with vectors expressing GLA and GLA variants using the lithium acetate method were selected on SD-Ura agar plates. After 72 h incubation at 30° C. colonies were placed into the wells of Axygen® 1.1 ml 96-well deep well plates filled with 200 μl/well SD-Ura broth (2 g/L SD-Ura, 6.8 g/L yeast nitrogen base without amino acids [Sigma Aldrich]), 3.06 g/L sodium dihydrogen phosphate, 0.804 g/L disodium hydrogen phosphate, pH 6.0 supplemented with 6% glucose. The cells were allowed to grow for 20-24 hours in a Kuhner shaker (250 rpm, 30° C., and 85% relative humidity). Overnight culture samples (20 μL) were transferred into Corning Costar® 96-well deep plates filled with 380 µL of SD-ura broth supplemented with 2% glucose. The plates were incubated for 66-84 h in a Kuhner shaker (250 rpm, 30° C., and 85% relative humidity). The cells were then pelleted (4000 rpm×20 min), and the supernatants isolated and stored at 4° C. prior to analysis.
GLA variants were challenged with bovine serum to simulate the conditions the variants encounter following infusion into a patient. First, 20 μL of yeast culture supernatant and 80 μL, of bovine serum were added to the wells of a 96-well round bottom plate. The plates were sealed and incubated at 37° C. for 1 h. For the assay, 50 μL of serum-challenged sample was mixed with 25 μL, of 1 M citrate buffer pH 4.3 and 25 μL, of 4 mM MUGal in McIlvaine buffer pH 4.8. The reactions were mixed briefly and incubated at 37° C. for 180 minutes, prior to quenching with 100 μL, of 1 M sodium carbonate. Hydrolysis was analyzed using a SpectraMax® M2 microplate reader monitoring fluorescence (Ex. 355 nm, Em. 448 nm).

Molecule	Relative Activity of GLA Variants After Challenge with Serum
B1	++ (++ = 1.5 to 2.5 relative activity over Rd2BB (SEQ ID NO: 10))
B2	+++ (+++ = >2.5 relative activity over Rd2BB (SEQ ID NO: 10))
B3	+ (+ = 0.5 to 1.5 relative activity over Rd2BB (SEQ ID NO: 10))
B4	++ (++ = 1.5 to 2.5 relative activity over Rd2BB (SEQ ID NO: 10))
B5	+++ (+++ = >2.5 relative activity over Rd2BB (SEQ ID NO: 10))
B6	+ (+ = 0.5 to 1.5 relative activity over Rd2BB (SEQ ID NO: 10))
B7	+ (+ = 0.5 to 1.5 relative activity over Rd2BB (SEQ ID NO: 10))
B8	++ (++ = 1.5 to 2.5 relative activity over Rd2BB (SEQ ID NO: 10))
B9	++ (++ = 1.5 to 2.5 relative activity over Rd2BB (SEQ ID NO: 10))
B10	+++ (+++ = >2.5 relative activity over Rd2BB (SEQ ID NO: 10))
